Experimental data from PMC11362013, “Mechanism for controlled assembly of transcriptional condensates by Aire” (Nature Immunology, 2024).

T1: CBP TAZ2 (mouse, UniProt P45481 1764-1855)
T1 chain: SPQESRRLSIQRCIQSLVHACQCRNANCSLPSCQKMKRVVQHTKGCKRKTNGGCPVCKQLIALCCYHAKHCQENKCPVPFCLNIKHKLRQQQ

T2: CBP TAZ2 (mouse, UniProt P45481 1764-1855)
T2 construct: the recombinant construct itself is described in the Supplementary Note; also called isolated CBP TAZ2; recombinant CBP TAZ2; source: E. coli, purified (details in the Supplementary Note)
T2 sequence (looked up): T1 chain

B1: mouse Aire CTT (aa 480-552) (domain or fragment, UniProt Q9Z0E3 480-552, looked up)
chain: TPTPGTPGEAVPTSGPRPAPGLAKVGDDSASHDPVLHRDDLESLLNEHSFDGILQWAIQSMSRPLAETPPFSS
notes: Aire (autoimmune regulator), mouse, C-terminal tail (CTT), residues 480-552; Used in NMR (15N13C-labelled) and ITC; whether tags were left on it is told only in the Supplementary Note; also called isolated CTT; source: E. coli, purified (details in the Supplementary Note)

Legend:
[1] = molecular target: FAM-labeled H3 peptide (aa 1-21) with no modification (UniProt P68431); assay: fluorescence polarisation; 50 nM fluorescein-labeled H3 peptide, increasing PHD (0-900 μM) in SEC Buffer (25 mM HEPES pH 7.5, 100 mM NaCl, 5 mM BME), 25 °C; simple binding isotherm
[2] = molecular target: FAM-labeled H3 peptide (aa 1-21) with K4me1 (UniProt P68431); assay: as above
[3] = molecular target: T1, CBP TAZ2; assay: ITC; two-site model, second site
[4] = molecular target: T2, CBP TAZ2; assay: ITC; 760 μM mouse Aire CTT in the syringe, 19-76 μM TAZ2 in the cell; 20 °C; 20 mM HEPES pH 7.5, 100 mM NaCl, 1 mM dithiothreitol; two-site binding model; settings: both partners purified

Molecule | Kd [1] | Kd [2] | Kd [3] | Kd of the high-affinity site (two-site model) [4] | Kd of the second, low-affinity site (two-site model) [4]
mouse Aire PHD1 (domain or fragment) | 5.25 µM | 23.2 µM | – | – | –
CHD4 PHD2 (domain or fragment) | 45.3 µM | – | – | – | –
B1 | – | – | 39.7 µM | 0.26 µM | 40 µM
